Test results taken from the DeepSol protein solubility set.

Experiment: soluble on expression in E. coli; label from the status in PepcDB or PDB records

Sequence	soluble on expression in E. coli
MSLTRPVTLSEPHFSQHTLNKYASLMAQGNGYLGLRASHEEDYTRQTRGMYLAGLYHRAGKGEINELVNLPDILGMEIAINGEVFSLSHEAWQRELDFASGELRRNVVWRTSNGAGYTIASRRFVSADQLPLIALEITITPLDADASVLISTGIDATQTNHGRQHLDETQVRVFGQHLMQGIYTTQDGRSDVAISCCCKVSGDVQQCYTAKERRLLQHTSAQLHAGETVTLQKLVWIDWRDDRQAVLDEWGSASLRQLEICAQQSYDQLLAASTENWRQWWQKRRITVNGGDAHDQQALDYALYHLRIMTPAHDERSSIAAKGLTGEGYKGHVFWDTEVFLLPFHLFSDPTVARSLLRYRWHNLPGAQEKARRSGWQGALFPWESARSGEEETPEFAAINIRTGLRQKVASAQAEHHLVADIAWAVIQYWQTTGDESFIAHEGMALLLETAKFWISRAVRVNDRLEIHDVIGPDEYTEHVNNNAFTSYMARYNVQQALNIARQFGCSDDAFIHRAEMFLKELWMPETQPDGVLPQDDSFMAKPAINLAKYKAAAGKQTILLDYSRAEVNEMQILKQADVVMLNYMLPEQFSAVSCLANLQFYEPRTIHDSSLSKAIHGIVAARCGLLTQSYQFWREGTEIDLGADPHSCDDGIHAAATGAIWLGAIQGFAGVSVRDGELHLNPALPEQWQQLSFPLFWQGCELQVTLDAQRIAIRTSAPVSLRLNGQLISVAEESVFCLGDFILPFNGTATTHQEDEEGHHHHHH	soluble
MEAEEIIGLLKKGDLEKAKDALSKEIDNLSDEELKEILEVAESVAKEKEDIELLKLVVYYYAEFFGIDKLEEFEGIAKEKGYEGLMHLADLYSLLGYPEKALDIYRELLKTDLIKEKEHIGEIYYGIATIHDELQEYDKALEAINEAVKAFKESNNVEKLHQAEVYRAYITFENGDRDKAKEILAGLLPHVTNREIKAQIHLVFKEIFEDEENYEAAIQESLYSLIEGIDTEVFDLAFDGLIDLIWELILEDKFEEIYKSMPMFKVAIPSLKDFFEGVRRIAMYREGKIGREEVSEILMKVKDERLVSILEFLGEAEV	soluble
MARMLTAADVEAAGGKLILAAGDRLTPLARDRARELGIVVEAAGLSSGVSTPSASPTSTSAPVVKSPLAAPAPAPVPAARPATPVAPPAATGSRPLALPPSGALYRRNALGPSAQSSRAVDGRPKAGVVGAGHVGAMTALRLAESDLFSEVALVDVVPGLAAGLALDMWHGAGLYGFSTRLSGSDDLVALAGAEYIVITAGKPRQPGMSRTDLTVVNAEIMTSVCRGIRTHAPNSTLVIVSNPLEEMTHLAAQQTGFPEERVLGMAGVLDSARFCALVGLTGKARPQEVRAVALGSHGPEMVIPLSQAFVGDRPIESMFDAETLKALVERARESGGEVVKLLQKGSAYFSPAESAVTMVRAMVRDSGEVIAACVRSRGAYGAVDTRVGLPVRLHRRGLKEIVPLTLRPAEQQALQDAAARIAARIAELPAPC	not soluble
MGSDKIHHHHHHMNEIVKLISKHNDVRTGAINLIVSENRMSPAALAALSSDLASRYAAPFYAGTDISQEIVAITEQKAKKLFNAEYVNISPISGSASLMAVVFALTSPGDKVGRVPPFFPGGGYPFNYEVFDRVSLPLPFDDEEWQLDLEATLELLEREKPKLVILGASIFTVPMPVREVADLVHSYGGIVAYDGSHSLGLIVGKQYQDPLNEGADILFGSTHKTFPGPQGGIIVTNSKELNDRIDIVSNFTPLNGPTMICNPHLARIASLGIVIDEVPWERYAEQVVKNSRAFANTLQAKGYEMRGQSTKKFSELSYCHQVLPKLDRQMGQGYRDKLKQHNIHVDGFMRVGTAEITRLGYVEADCTRISEIMAEIVSSNQDVIPSLRHEVVEMNANHQHIVM	not soluble
MGSDKIHHHHHHMPINSFENYPMTWKPKLDNRKPPIYKTLAMLLEEDIKRGNLNPGDKLPPQRELADFLDLNLSTITRAFKLCEEKGLICAKVGKGTFISSDVNVSNTLLYQTESKDIIELGTVHPPYEQNTYIIDFIKNVLKQPEMDRFLQYMSPSGTYMQKKSIAKWIERNNVYTSEENILLSTGGQNAICATLLGLFKAGDRIATDSLSFSGIKSIAKMIGIQLVPIPQENNEISIEYLESYCKNENIKGIYLIPDYHNPTTHTMSDLSRKKIAKIAKQYNIIIIEDAINSIFRDGIQTPIFSLASDNTIYIFSTSKFLCAGLRVAFVVAPKRYIENLENALYNMNLMVSPFTAEIVHRLLYSPIIDKIIEEKRDAIIERNEVADKVLSDYNLIGDKNCSFRWLLLPDELDGKSFEISAKNLGVQVYCAERFSVGNSTVPKAVRICVTAPKDVEELEKGLNIIKSLLKS	not soluble
MPVLGQIWELSDSQKVGSLDKRGAFVAFKLVAAAQQGKPVANSSLYDSSLQPPRFAPPVPPANMQHHFQPSFPSVGRAPPVPPPPHPSHPYSISSQQSSPAHPSSAFPPQWPITPTDQAKYDSIFQSLNPVNGKLSGAHVRPVLMNSGLDAHALARIWELSDQDKDGNLDRIEMSVALHLVYRSLQSDPVPAQLPPNLIHPSKAMYAHSSPNFAAPPHPPRPMMGSRAGSVTSLDDVNMSQSYSATMPRAYPPQPGRAYSAQAHVNGSRTSGASTPISASHSIHSFPAGEWPINTGDYADQFAQTDTNKDGLVDGMDMRAPMMTTGLSAQILAHVWALADIKKCGQLNLEQFALTMHLLDMAKRGESIPSELPLHLIPPSFRPPTEPSALHHPAQSVSTPQLPEATSMEIKEALEGENEEMKQLAESIQSMLVERKTAEEAVLQLEADMTIKNSSIKNLQVELATLESTVKQLERQKGEATRRLADYDTQIEQLESACKAQKETKEDTEKRMQQIDEDAKNAEDCKANDEKEMEELKKEIEMLDNQFKTVRGEIVKETSQREQKVAELTTLERKEARDQIQMEKLDAAIENTTKLTEQVSDAVEKSEEEMVQILRSQQRLLSTVIDQSLLSDDTVYGETAGTSSQNHVQQPPDPFASARANPAADPFAQVDQFGSSGHFDAAFPTDPFAQGGFPSDSGFAQSAPAKPAPPRPAPPKSARETPVNDPFAPSQGQSTQPAGFADFADFGSAFN	not soluble
MELLLSKVTDAGIDPSSVSGEEAITLWEHIGRHIASTSREKAHCLIISAEYRREIKQLCDSIEELRQALELLSLPEDVEDILSVKASLSERLVEVGDYNSALTEYIASTNIAVEYGFIDEYVLAIIGMGNLCDAYGDHNRALRYYQKIDAIDHAISSRSLRLRYKLYMLACYISLKRVAEASELLGECEELSILVSDKNLAAQTHLYRAKLHRLQEEYSEALLSISSIKYTTGSATTYWLSTMVKIETAYCLNGVGHTSLANLLLESIGKRIKKHSSPILAKRFYNAMSKVSASQGQFQQALSCEKRAFRIESDLIKHIPISELGAAQLRRLSRFELQLKLILSEIENKEL	not soluble
MSLGDQKPATIYAPTVRVTPNPAWPQVSWQLLVAKPSAARIIDSPRINVRPTPGELQVYHGAGWAQPATDMLEDSVVRAFEDSGKIAAVARIGAGIRSDYKLAIDVRRFESDYAGQSLPAATIELNAKLLHSSDQRVVASRTFTVARPSSSTDTAAVAAAFEQALTQVTTELVGWTLITGQQDSQTLPRALEGHHHHHH	soluble
MGHHHHHHSHIGSFPLPKGITREWVERNLHTKEYEEMVQRAFLMKAKVLDVPTYPQFRDMIEMFMQPIKANQVEPYLIDERKAVIPELEYVEKMSVEAVRVCITGPFELYYREFGGVIYEDILLNLAESVRRFVENAAKHENVVCISIDEPSLGIAPDLQPDEELLQKALDYKVKQDVQIHLHEPLYYEKILETSVDVIGIECAKKPENMDFIDAEAVASAEKKLRIGVARSDIDGIIAEFNALHGVNAWGNEELISLAIDEIEPVEKIAERISKAKERFGDLLAYIGPDCGLFSFPSQELALQLLENVRKAVRE	not soluble
MNYLESEISALYASAHELCYLGMDGRPIYSDQFTRLNRDVFSQANALYDKRGNSHEEEARLCLSLLMGYNATLYNNGDKEERIQHILDRCWDVLEHLPASLLKVQLLVYCYGEVFDEELAREAQAIIDTWQDRKLSEEEREVVERLKDVQENPYPWSEVE	not soluble
SGMEELEQGLLMQPWAWLQLAENSLLAKVFITKQGYALLVSDLQQVWHEQVDTSVVSQRAKELNKRLTAPPAAFLCHLDNLLRPLLKDAAHPSEATFSCDCVADALILRVRSELSGLPFYWNFHCMLASPSLVSQHLIRPLMGMSLALQCQVRELATLLHMKDLEIQDYQESGATLIRDRLKTEPFEENSFLEQFMIEKLPEACSIGDGKPFVMNLQDLYMAVTTQEVQVGQKHQ	soluble
PFSWRHYIVLSRQDLEEYGEEIIAHEYAHIMHKHFRDLLLAEICLLFQWFNPAMWLFRKELKTVHEFEADESVLKAGIDAKKYQLLLI	not soluble
DLYRRQQGELKQTKLQNSILLSVSHDLRTPLATIIGTLTTLNEYMPKLNDLERKELLDSATSESHRLHQYIENLLQATKLQHGTLKITKKDEPIANIVRDAVSRLPNYTEKVSMNMDDSVGYLSVSRSL	not soluble
GPGSMGYRLLRDNVFKASCAKDSDELRARREPTMLYKEDQLVAPASGTERRYTLVLDLDETVIYAREGPLYARAYLKELLSFIRKNFEVIVWTAGEREYAECILEEINIRNTVRHLIHRHKTWFSFDDYTKDLTKLGRNLDYVIIIENSPDCVRTNPQNGIIVDDFRVSQTPPMEEAEAAWEGDGNNRERKAGSRSDSKTRRQVTDRTLLLLREVLKAMVESGETVPDFLAKCPLLTQRRVIGSDGSQIQTYHLGTRRKRGIPQLCASSPKRRRVTKESAPGATCTS	soluble
MGVDRQILVEGDNVTKPKNGQTVTCHYVLTLENGKKIDSSRDRGTPFKFKIGKGEVIKGWDQGVAQMSVGEKSKLTISADLGYGPRGVPPQIPANATLVFEVELLGVN	soluble
MTSDIKAILEQVVISPDVPIAEAIAQLDRAGTGSLVVCSADKKLYGLLTDGDVRRALLKAVDMGAPCGDIANRKPVITFVPLLPIEALRLMNHHDINHLPVLDAEGRVVDFLLRRDLVAEDELAARARRRLDSVVIPCSASIAEAIAQLDRAGTGALVLCSEGDRLHGLLTDGDIRRAVLRGISLDAPCQDVASRRPVTVEPSFSAAQALHLMNQHDINHLPVVDDTGRVVDFLLRRDLIADDQLNLSAVVMAGGYGKRLLPLTEQVPKPMLPVGDRPLLERTIDQLRRSGIREVNLTTHYLPDSIVEHFGDGDSFGVKLNYLKEDHPLGTAGGLKLMKKASDPFLVMNGDILTGVPFQEMFAYHRKNGAEITVGVRKYEVQVPFGVVECDDVRITGLKEKPSLTFFINAGIYLLEPSVCDLIPEGERFDMTDLIQKLLDEGRSVVSFPIMEYWLDVGRHEDYQKAQEDVRSGKIQLEHHHHHH	not soluble
LLWPNYMRPLPAFSILQFDPLTRPGGALRVERDTPVESRPVGEVACRFRTCYATEVLPLVLEALNYSVTGEGALLGLRLAMNCDGHLGELGLSRLRLHLAGERYISQMLYLCLLRNLESIQLIPLDAHGRPLDGVAGKPMSFRLTGERVQPVGFAEDEALIPYPLNTFRGYRYLQEYFAFQDKFLFVDVDGLDLLGALPEETLKQVRGLELRFDIRKSGIQRLHPTLENVKLYCTPVANLFRHDALPIRLDGKQDEYLLMPAEYSLEDCGVFSVEGVTGWRPGGLGYQAYVPFESFEHDPSFDVPEARPHYSVRQRTSLLHDGLDTYLSFGIRHPEQIETLSVELTCTNQNLPQRLRLGDICVACEGTPEFLGFRNITPATPSYAPPLNRDFLWKLISNMSLNYLSLANVDALKVILETYDLPRYYDQHAAKVSKRLLGGLKAVRHEHVDRLHRGLPLRGLRTELTIDPEGYIGEGDLFVFASVLNEFFALYASINSYHELRVRSTQGDVYQWKPRMG	not soluble
